Target: human MASP-2 (Homo sapiens (Human), UniProt O00187)
Experiment: C3 assay: inhibition of lectin pathway C3 convertase formation in human serum (scFv clones)
Format: biochemical
Conditions: read-out: 1% human serum C3 assay (IC50 nM), scFv format
Text: A functional assay that measures inhibition of lectin pathway C3 convertase formation was used to evaluate the “blocking activity” of the MASP-2 scFv candidate clones. MASP-2 serine protease activity is required in order to generate the two protein components (C4b, C2a) that comprise the lectin pathway C3 convertase. Therefore, a MASP-2 scFv that inhibits MASP-2 functional activity (i.e., a blocking MASP-2 scFv), will inhibit de novo formation of lectin pathway C3 convertase. […]
The scFv clones were each tested in triplicate at the concentration of 2 μg/mL. […] C3c formation was monitored in the presence and absence of the scFv/IgG clones. […]
Normal human serum was diluted to 0.5% in CaMgGVB buffer, and scFv clones or the OMS100 Fab2 positive control were added in triplicates at 0.01 μg/mL; 1 μg/mL (only OMS100 control) and 10 μg/mL to this buffer and preincubated 45 minutes on ice before addition to the blocked ELISA plate. […] C3b deposition was detected with a Rabbit α-Mouse C3c antibody followed by Goat α-Rabbit H1RP. […] The background was determined by carrying out the same assay except that the wells were mannan-free. […]

human MASP-2, sequence (O00187 whole entry, looked up): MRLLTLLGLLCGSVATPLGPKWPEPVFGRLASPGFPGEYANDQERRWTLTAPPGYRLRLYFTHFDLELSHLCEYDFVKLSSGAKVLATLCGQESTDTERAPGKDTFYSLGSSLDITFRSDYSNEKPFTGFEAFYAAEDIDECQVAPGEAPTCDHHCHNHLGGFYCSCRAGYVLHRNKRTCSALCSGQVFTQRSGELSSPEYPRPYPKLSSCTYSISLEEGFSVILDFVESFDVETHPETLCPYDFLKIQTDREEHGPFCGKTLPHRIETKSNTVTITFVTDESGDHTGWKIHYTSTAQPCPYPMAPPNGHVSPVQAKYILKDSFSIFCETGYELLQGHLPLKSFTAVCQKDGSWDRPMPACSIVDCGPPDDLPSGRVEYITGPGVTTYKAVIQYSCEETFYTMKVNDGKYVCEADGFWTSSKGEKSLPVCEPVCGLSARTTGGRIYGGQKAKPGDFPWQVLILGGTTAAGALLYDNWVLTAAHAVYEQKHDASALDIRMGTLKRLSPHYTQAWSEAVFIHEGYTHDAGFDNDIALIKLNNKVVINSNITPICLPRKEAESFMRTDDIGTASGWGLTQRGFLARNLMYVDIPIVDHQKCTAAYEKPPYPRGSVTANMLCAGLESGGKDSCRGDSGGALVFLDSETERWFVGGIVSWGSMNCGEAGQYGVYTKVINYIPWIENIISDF

Molecule | IC50 [nM]
17D20mc: mother scFv clone, fully human MASP-2 antibody from phage display (TABLE 8, "all in scFv format") (protein) scFv: QVTLKESGPVLVKPTETLTLTCTVSGFSLSRGKMGVSWIRQPPGKALEWLAHIFSSDEKSYRTSLKSRLTISKDTSKNQVVLTMTNMDPVDTATYYCARIRAGGIDYWGQGTLVTVSSKLSGSASAPKLEEGEFSEARVQPVLTQPPSVSVSPGQTASITCSGDKLGDKFAYWYQQKPGHSPVLVIYQDNKRPSGIPGRFSGSNSGNTATLTISGTQAMDEADYYCQAWDSSTAVFGTGTKVTVLAAAGSEQKLISEEDLNSHHHHHH | 38
17N16mc: mother scFv clone, fully human MASP-2 antibody from phage display (TABLE 8, "all in scFv format") (protein) scFv: QVQLQQSGPGLVKPSQTLSLTCAISGDSVSSTSAAWNWIRQSPSRGLEWLGRTYYRSKWYNDYAVSVKSRITINPDTSKNQFSLQLNSVTPEDTAVYYCARDPFGVPFDIWGQGTMVTVSSKLSGSASAPKLEEGEFSEARVSYVLTQPPSVSVAPGQTARITCGGNNIGSKNVHWYQQKPGQAPVLVVYDDSDRPSGIPERFSGSNSGNTATLTVSRVEAGDEADYYCQVWDTTTDHVVFGGGTKLTVLAAAGSEQKLISEEDLNSHHHHHH | 68

From patent US12351648B2, “Methods of inhibiting MASP-2 for the treatment and/or prevention of coronavirus-induced acute respiratory distress syndrome” (priority 2020, dated 2025)
